Several values for one entry are separate records, joined by “and”; a condition that tells them apart may be missing. Equal entries are not always repeated.
Target: Hsp78TR-6xHis (Hsp78 E216Q/E614Q Walker B mutant with a C-terminal 6x polyhistidine-tag) (S. cerevisiae) (UniProt P33416)
Test: native gel or EMSA

stoichiometry N: 3 and 6
Substance: Hsp78TR-6xHis (Hsp78 E216Q/E614Q Walker B mutant with a C-terminal 6x polyhistidine-tag) (from UniProt P33416 45-811) (natural protein)

— publication doi:10.1101/2022.01.28.478199
